Test results from patent US20200109390A1 (Chugai, published 2020).

Molecular target: T1, human blood coagulation factor IX (human, UniProt P00740 47-461, Gla (gamma-carboxyglutamate) residues in the GLA domain of native FIX); the twelve Glu of the GLA domain are at positions 53, 54, 61, 63, 66, 67, 72, 73, 76, 79, 82 and 86 of SEQ ID NO: 1 (positions …)
T1 construct: The FIX co-administered with the antibodies was Christmassin M I.V; antibody A was raised against human FIXa; also called FIX; human FIX
T1 sequence (P00740 47-461): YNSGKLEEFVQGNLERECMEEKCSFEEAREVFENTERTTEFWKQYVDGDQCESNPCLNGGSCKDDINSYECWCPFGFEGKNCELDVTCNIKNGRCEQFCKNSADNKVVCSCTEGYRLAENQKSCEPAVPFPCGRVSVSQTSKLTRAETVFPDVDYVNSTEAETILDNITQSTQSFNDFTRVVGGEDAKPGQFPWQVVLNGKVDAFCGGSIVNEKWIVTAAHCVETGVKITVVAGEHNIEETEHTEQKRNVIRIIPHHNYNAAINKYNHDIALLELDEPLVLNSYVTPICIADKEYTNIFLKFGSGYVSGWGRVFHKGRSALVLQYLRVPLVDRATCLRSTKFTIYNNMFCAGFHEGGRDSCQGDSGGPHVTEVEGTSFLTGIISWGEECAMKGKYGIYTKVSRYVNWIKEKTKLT
Test: not described (statement in Example 4)
Procedure: PK tests using mice were performed by the following method. Through the tail vein or under the dorsal skin of mice (C57BL/6J mouse, Charles River Japan), FIX (Christmassin M I.V.) was administered at a dose of 0.6 mg/kg by itself or simultaneously with 8 mg/kg of an anti-FIX antibody A or anti-FIX antibody B, in a single dose. Blood was collected five minutes, two hours, four hours, seven hours, one day, two days, seven days, 14 days, 21 days, and 28 days after the administration. The collected blood was immediately subjected to separation by centrifugation at 4° C. and 15,000 rpm for 15 minutes to obtain the plasma. The separated plasma was stored in a freezer set to −20° C. or lower until performing the measurements.
The concentration of FIX in mouse plasma was determined by ELISA. […] After stopping the reaction by adding a reaction-stopping solution (AssayPro), the 450-nm absorbance of the reaction solution in each well was measured using a microplate reader. The concentrations of FIX in mouse plasma were calculated from the absorbances of the calibration curve using SOFTmax PRO analysis software (Molecular Devices).

Binder	binding result
anti-FIX antibody A (antibody, human IgG1, kappa, V domains shown, Obtained by immunizing an animal with human FIXa) VH: QVQLQQSGAELAKPGASVKLSCKASGYTFTSSWMHWIKQRPGQGLEWLGYINPSSGYTKYNRKFRDKATLTADKSSSTAYMQLTSLTYEDSAVYYCARGGNGYYFDYWGQGTTLTVSS VL: DIVMTQSHKFMSTSVGDRVSITCKASQDVGTAVAWYQQKPGQSPKLLIYWASTRHTGVPDRFTGSRYGTDFTLTISNVQSEDLADYLCQQYSNYITFGGGTKLELKR	binds
anti-FIX antibody B (antibody, human IgG1, kappa, V domains shown, expressed transiently in FS293 cells) VH: QVQLVQSGSELKKPGASVKVSCKASGYTFTNYGMNWVRQAPGQGLKWMGWINTRNGKSTYVDDFKGRFVFSLDSSVSTAYLQISSLKADDTAVYYCTREGNMDGYFPFTYWGQGTLVTVSS VL: QIVLTQSPSSLSASVGDRVTITCRASSSVNYMHWYQQKPGKAPKPWIYATSNLASGVPSRFSGSGSGTDYTFTISSLQPEDIATYYCQQWSINPRTFGQGTKVEIKR	binds
